Measured values as given in the supplement of paper PMC10065799, “High-throughput profiling of sequence recognition by tyrosine kinases and SH2 domains using bacterial peptide display” (eLife, 2023).

How the values were obtained:
[1] = target: EPHB2 (UniProt P29323); test: phosphorylation enrichment, bacterial display (enrichment ratio); higher = better substrate or ligand; peptides without Tyr show the background
[2] = target: Fyn (UniProt P06241); test: as above
[3] = target: FGFR3 (UniProt P22607); test: as above
[4] = target: EPHB1 (UniProt P54762); test: as above
[5] = target: MERTK (UniProt Q12866); test: as above
[6] = target: Fes (UniProt P07332); test: as above
[7] = system: c-Src; test: as above
[8] = system: c-Abl (mouse); test: as above
[9] = system: AncSZ; test: as above
[10] = target: Jak2 (UniProt O60674); test: as above
[11] = target: Hck (UniProt P08631); test: as above
[12] = system: Fer (mouse); test: as above
[13] = target: FGFR1 (UniProt P11362); test: as above
[14] = target: c-Src SH2; test: SH2 binding enrichment of the phosphorylated peptide, bacterial display (enrichment ratio); higher = better substrate or ligand; peptides without Tyr show the background
[15] = target: SHP2-C SH2; test: as above
[16] = target: Grb2 SH2 (UniProt P62993); test: as above
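For SH2 binding enrichment of the phosphorylated peptide, bacterial display in this document: peptide library displayed on the E. coli surface as eCPX fusions, selected cells deep-sequenced, score is each peptide's frequency after selection divided by its frequency in the input.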
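For phosphorylation enrichment, bacterial display in this document: 11-residue human phosphosite peptides and single-mutation variants displayed on the E. coli surface, counted by deep sequencing, each peptide's frequency after selection divided by its frequency in the unselected input library; frequency after pTyr selection over input frequency; kinase dosed for 20-30% of maximal phosphorylation in three min.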

Sequence of EPHB1 (P54762 whole entry, looked up): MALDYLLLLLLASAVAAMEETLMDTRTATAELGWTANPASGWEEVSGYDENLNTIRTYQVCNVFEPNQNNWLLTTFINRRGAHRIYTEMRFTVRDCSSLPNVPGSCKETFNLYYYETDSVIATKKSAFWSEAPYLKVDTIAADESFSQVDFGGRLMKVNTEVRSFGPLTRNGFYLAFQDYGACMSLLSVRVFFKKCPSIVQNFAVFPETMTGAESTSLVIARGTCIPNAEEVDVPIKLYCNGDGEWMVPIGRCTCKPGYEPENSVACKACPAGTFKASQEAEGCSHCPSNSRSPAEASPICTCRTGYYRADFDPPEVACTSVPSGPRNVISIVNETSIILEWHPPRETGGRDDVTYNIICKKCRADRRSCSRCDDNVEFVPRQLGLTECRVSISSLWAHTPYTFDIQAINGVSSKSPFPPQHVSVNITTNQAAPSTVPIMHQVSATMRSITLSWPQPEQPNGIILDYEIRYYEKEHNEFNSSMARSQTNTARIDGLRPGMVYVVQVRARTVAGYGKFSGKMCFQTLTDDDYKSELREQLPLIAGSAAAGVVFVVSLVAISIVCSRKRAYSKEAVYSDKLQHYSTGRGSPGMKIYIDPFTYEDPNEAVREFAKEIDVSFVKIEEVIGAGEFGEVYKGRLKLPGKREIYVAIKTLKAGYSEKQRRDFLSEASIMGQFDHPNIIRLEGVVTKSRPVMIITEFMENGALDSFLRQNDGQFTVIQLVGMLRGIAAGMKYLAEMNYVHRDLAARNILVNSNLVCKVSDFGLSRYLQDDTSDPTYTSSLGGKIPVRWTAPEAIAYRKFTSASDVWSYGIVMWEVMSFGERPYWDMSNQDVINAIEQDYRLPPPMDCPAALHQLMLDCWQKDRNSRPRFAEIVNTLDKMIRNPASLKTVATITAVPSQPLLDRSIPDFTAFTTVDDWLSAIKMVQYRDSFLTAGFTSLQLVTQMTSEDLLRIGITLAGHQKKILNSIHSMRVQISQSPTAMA
Sequence of FGFR3 (P22607 whole entry, looked up): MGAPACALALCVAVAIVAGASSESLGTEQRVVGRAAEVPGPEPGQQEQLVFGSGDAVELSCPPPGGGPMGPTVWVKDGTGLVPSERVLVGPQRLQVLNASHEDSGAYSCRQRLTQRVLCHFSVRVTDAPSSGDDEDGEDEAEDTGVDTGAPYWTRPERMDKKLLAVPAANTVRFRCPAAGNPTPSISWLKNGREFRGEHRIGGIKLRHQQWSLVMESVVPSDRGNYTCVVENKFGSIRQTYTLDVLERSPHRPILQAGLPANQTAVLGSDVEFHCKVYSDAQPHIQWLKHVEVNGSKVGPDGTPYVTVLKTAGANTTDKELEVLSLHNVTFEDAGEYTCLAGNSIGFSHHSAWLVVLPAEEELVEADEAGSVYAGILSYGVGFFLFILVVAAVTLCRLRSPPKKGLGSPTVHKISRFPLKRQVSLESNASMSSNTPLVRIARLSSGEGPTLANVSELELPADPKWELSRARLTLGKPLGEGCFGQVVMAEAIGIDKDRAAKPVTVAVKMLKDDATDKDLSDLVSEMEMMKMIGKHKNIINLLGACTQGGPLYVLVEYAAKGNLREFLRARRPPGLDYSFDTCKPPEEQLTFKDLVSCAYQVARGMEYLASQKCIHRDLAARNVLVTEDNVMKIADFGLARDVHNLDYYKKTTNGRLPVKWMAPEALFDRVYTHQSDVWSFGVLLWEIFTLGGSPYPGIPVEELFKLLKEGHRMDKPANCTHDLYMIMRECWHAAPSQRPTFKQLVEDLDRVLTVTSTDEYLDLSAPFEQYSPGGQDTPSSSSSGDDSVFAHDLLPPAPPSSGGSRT
Sequence of EPHB2 (P29323 whole entry, looked up): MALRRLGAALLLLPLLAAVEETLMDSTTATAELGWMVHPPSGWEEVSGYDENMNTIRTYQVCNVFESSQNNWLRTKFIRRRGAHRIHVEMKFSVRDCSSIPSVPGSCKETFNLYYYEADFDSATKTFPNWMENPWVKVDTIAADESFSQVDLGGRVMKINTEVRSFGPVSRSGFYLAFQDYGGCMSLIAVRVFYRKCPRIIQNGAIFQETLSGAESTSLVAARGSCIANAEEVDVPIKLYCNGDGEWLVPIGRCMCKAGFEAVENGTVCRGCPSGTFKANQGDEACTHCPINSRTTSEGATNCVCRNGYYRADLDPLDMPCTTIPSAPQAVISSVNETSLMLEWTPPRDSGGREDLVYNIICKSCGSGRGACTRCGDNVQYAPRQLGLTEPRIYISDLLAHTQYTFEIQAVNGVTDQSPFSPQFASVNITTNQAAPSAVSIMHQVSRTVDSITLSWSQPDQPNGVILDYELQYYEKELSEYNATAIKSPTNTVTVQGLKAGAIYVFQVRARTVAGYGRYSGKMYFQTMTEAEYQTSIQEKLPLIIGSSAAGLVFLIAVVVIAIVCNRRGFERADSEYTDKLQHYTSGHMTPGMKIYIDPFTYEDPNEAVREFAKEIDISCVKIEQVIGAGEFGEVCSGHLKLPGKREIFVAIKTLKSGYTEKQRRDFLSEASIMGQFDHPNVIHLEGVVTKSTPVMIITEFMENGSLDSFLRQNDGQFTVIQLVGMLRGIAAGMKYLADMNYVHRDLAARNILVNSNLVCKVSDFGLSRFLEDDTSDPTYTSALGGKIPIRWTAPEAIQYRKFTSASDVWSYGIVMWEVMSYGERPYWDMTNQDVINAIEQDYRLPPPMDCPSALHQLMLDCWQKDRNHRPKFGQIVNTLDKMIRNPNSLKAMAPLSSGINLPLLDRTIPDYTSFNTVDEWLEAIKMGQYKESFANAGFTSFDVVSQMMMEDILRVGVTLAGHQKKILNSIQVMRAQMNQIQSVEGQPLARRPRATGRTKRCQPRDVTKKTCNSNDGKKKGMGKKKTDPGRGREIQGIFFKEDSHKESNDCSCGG
Sequence of Fes (P07332 whole entry, looked up): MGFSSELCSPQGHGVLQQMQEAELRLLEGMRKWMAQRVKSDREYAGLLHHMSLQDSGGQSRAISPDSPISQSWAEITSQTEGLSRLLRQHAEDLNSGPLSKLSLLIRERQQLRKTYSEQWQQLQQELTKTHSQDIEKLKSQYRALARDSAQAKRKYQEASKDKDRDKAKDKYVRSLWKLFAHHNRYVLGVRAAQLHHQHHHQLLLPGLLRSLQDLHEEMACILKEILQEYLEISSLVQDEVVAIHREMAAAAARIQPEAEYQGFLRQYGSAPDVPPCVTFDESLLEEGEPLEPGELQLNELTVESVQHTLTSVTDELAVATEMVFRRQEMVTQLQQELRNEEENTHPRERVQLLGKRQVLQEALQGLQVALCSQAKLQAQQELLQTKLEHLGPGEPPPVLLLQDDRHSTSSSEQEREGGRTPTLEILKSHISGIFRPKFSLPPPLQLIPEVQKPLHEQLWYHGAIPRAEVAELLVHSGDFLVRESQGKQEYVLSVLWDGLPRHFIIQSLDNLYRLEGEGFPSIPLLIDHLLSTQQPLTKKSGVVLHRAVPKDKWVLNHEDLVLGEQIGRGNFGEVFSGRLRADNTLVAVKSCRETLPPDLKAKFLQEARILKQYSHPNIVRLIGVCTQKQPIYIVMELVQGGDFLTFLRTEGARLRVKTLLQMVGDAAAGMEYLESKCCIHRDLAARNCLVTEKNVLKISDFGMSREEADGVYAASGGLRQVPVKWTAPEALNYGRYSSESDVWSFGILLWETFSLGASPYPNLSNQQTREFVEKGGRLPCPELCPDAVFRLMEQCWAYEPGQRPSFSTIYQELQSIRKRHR
Sequence of Fyn (P06241 whole entry, looked up): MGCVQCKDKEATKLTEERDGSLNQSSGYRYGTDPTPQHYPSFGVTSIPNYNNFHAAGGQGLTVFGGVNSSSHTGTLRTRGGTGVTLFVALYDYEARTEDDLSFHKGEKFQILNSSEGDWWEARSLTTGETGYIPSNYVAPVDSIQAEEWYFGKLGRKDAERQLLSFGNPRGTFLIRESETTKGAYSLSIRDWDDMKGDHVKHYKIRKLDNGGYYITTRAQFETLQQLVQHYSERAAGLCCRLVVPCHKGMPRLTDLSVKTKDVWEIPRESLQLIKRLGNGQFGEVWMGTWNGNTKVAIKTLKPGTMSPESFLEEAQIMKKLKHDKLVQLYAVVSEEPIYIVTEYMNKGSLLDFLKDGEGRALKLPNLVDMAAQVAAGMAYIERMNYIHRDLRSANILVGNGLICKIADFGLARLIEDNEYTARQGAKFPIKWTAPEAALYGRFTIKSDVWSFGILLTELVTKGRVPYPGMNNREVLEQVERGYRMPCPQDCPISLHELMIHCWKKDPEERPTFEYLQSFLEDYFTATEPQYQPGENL
Sequence of FGFR1 (P11362 whole entry, looked up): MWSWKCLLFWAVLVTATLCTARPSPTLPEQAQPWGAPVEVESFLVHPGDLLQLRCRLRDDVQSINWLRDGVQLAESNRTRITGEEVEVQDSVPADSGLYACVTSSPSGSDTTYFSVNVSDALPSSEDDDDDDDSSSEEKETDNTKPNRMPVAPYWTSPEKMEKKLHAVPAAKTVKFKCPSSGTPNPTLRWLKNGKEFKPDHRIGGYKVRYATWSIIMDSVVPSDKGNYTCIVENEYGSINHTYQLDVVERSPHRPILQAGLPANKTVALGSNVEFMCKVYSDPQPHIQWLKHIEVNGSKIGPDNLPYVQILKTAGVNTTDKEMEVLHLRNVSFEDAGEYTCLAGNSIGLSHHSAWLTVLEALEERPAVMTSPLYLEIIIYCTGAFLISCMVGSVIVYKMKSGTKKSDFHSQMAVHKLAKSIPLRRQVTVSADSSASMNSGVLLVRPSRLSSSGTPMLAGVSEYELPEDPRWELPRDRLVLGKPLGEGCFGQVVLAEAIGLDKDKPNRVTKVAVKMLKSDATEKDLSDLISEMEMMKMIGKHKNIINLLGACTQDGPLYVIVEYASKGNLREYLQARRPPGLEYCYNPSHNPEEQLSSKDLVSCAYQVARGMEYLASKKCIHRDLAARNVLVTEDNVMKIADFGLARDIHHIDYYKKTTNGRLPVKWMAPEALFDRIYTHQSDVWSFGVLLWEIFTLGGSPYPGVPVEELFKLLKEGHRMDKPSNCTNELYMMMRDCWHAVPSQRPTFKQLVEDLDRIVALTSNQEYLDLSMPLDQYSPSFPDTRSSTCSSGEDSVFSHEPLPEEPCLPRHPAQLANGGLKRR

SH2 binding enrichment [14]	SH2 binding enrichment [15]	SH2 binding enrichment [16]	Sequence	phosphorylation enrichment [1]	phosphorylation enrichment [2]	phosphorylation enrichment [3]	phosphorylation enrichment [4]	phosphorylation enrichment [5]	phosphorylation enrichment [6]	phosphorylation enrichment [7]	phosphorylation enrichment [8]	phosphorylation enrichment [9]	phosphorylation enrichment [10]	phosphorylation enrichment [11]	phosphorylation enrichment [12]	phosphorylation enrichment [13]
0.464	0.606	0.914	HTLIKYTDGDQ [PUS7L_Y94]	0.982	1.89	1.14	0.819	1.16	1.76	1.09	1.35	1.41	1.75	1.01	0.64	1.33
0.512	0.674	0.956	HVPEEYKPKQG [SAXO2_Y37]	0.434	0.449	0.519	0.493	0.423	1.17	0.685	0.943	0.827	0.867	0.62	0.386	0.366
0.393	0.674	0.796	IATAIYSGDKI [UGGT2_Y823]	0.432	2.11	0.482	0.434	0.455	0.671	2.69	0.422	0.543	0.6	2.38	0.396	0.421
0.516	0.695	0.893	IATTIYSGDKI [UGGT2_Y823_A821T]	0.557	0.591	0.493	0.576	0.507	0.752	0.748	0.778	0.638	0.701	0.791	0.41	0.57
0.545	0.607	0.764	IDAVCYFRMEN [NPHS2_Y194_I192V_YF]	0.763	0.653	1.34	0.788	0.715	1.99	0.873	1.5	1.79	2.74	0.903	0.641	0.986
0.561	0.697	0.821	IDSTPYGQWFE [RPS8_Y109_R110G_YF]	0.722	3.54	0.89	0.621	0.473	1.18	3.56	0.657	1.27	0.998	1.52	0.712	0.713
0.471	0.662	0.681	IEEGTYGVAYR [CDK11B_Y449_V452A]	2.44	7.54	0.635	0.686	2.22	1	5.77	0.836	1.24	0.928	5.91	5.71	0.494
0.349	0.467	0.722	IEEGTYGVVFR [CDK11B_Y449_YF]	7.66	8.86	0.961	2.76	3.13	1.48	5.94	1.2	1.41	1.38	7.46	6.28	0.548
0.451	0.668	0.834	IEEGTYGVVYR [CDK11B_Y449]	10.8	8.95	0.702	4.1	4	1.01	5.65	1.3	1.33	0.902	7.29	7.46	0.509
21.6	0.697	0.883	IETGRYEILTE	0.762	0.488	0.632	0.595	0.533	1	0.479	0.854	1.07	0.951	0.487	0.464	0.491
0.561	0.77	0.819	IFGEEYEEQPR [ZMYM2_Y1033_V1028I]	0.647	0.535	0.849	0.663	0.451	1.28	0.591	0.662	1.47	1.16	0.608	0.721	0.611
0.381	0.514	0.635	IGEGTYGVLYK [CDK2_Y15_V18L]	2.75	8.4	0.632	1.55	2.63	1.04	5.6	0.587	0.817	0.635	7.04	0.808	0.416
0.457	0.655	0.799	IGEGTYGVVFK [CDK2_Y15_YF]	2.86	7.22	0.557	1.14	0.905	1.05	4.93	0.631	0.826	0.815	4.9	1.02	0.431
0.798	1.4	1.16	IGSQRYKLGVR [RB1_Y446]	0.332	0.332	0.364	0.336	0.306	0.426	0.356	0.41	0.447	0.436	0.31	0.322	0.369
2.69	1.66	1.34	IIRYNYLLDVL [FGFR4_Y237_S232I]	0.651	0.476	0.723	0.522	0.52	2.41	0.49	0.976	0.943	1.03	0.557	0.507	0.599
0.628	0.969	0.939	IKNSGYISQYL [EIF2AK3_Y585_R588Q]	0.375	0.427	0.458	0.414	0.374	0.783	0.406	0.435	0.593	0.617	0.39	0.323	0.443
0.401	0.648	0.877	ILGLEYSLRLP [HELZ2_Y1304_V1308L]	0.56	0.628	0.942	0.814	0.5	1.44	1.08	0.937	1.37	1.33	0.479	0.649	0.542
1.41	2.73	6.67	ILGRTYYVNHE [NEDD4_Y627]	0.539	0.368	0.682	0.607	0.368	0.941	0.68	0.725	0.928	0.705	0.632	0.507	0.485
0.509	0.8	0.731	ILKPDYQPLAV [HYDIN_Y1072_I1077V]	0.42	0.48	0.667	0.409	0.448	0.828	0.418	0.73	0.817	0.617	0.456	0.387	0.475
0.695	1.16	1.23	IMICAYLLHRG [PTEN_Y138_V133I]	0.687	0.709	0.77	0.617	0.536	1.35	0.566	1.19	1.3	1.23	0.525	0.827	0.534
0.768	1.1	1.41	IMVFVYCRVFQ [ADRB2_Y219_S220C]	0.488	0.51	0.632	0.424	0.449	0.836	0.395	0.63	0.729	0.699	0.473	0.435	0.841
0.453	0.633	0.799	INASGYRIGPA [ACSM1_Y477]	0.374	0.328	0.367	0.371	0.33	0.502	0.433	0.36	0.479	0.401	0.385	0.467	0.349
0.491	0.57	0.746	INPIIYAFVGG [CCR5_Y297_E302G]	9.68	6.26	3.51	11.5	8.42	2.1	5.05	14.4	1.14	1.55	6.35	6.66	4.39
0.44	0.833	0.944	INSLKYAFNIS [EIF2B5_Y583_YF]	0.475	0.311	0.567	0.438	0.349	0.818	0.379	0.632	0.722	0.809	0.424	0.385	0.451
0.574	0.914	0.876	IPKTWYSAEQF [CD207_Y217]	3.04	0.522	0.538	3.19	9.16	0.939	0.615	0.526	0.855	0.681	0.542	0.448	0.494
0.824	0.915	0.925	IRCQGYSHRIL [MYO3B_Y993_R990C]	0.558	0.493	0.506	0.46	0.471	0.664	0.523	0.493	0.723	0.649	0.475	0.47	0.423
0.642	1.13	0.776	IRSGIYFKPES [L2HGDH_Y102_H98R_YF]	0.687	0.768	0.625	0.63	4.3	0.95	0.673	2.88	0.913	1.19	0.786	0.467	0.542
0.543	0.719	0.745	ISRDVYSTDYY [NTRK2_Y702_M697I]	2.51	3.34	3.13	2.43	6.57	1.04	4.67	0.69	1.83	1.12	1.95	0.703	4.9
0.457	0.735	0.75	ITGNGYFFRVF [MYBPC3_Y1135_I1131T_YF]	0.493	0.358	0.595	0.496	0.305	1.08	0.31	0.647	0.906	0.99	0.377	0.416	0.451
